Measured values taken from patent US20250375505A1, “COMPOSITIONS AND METHODS FOR MODIFYING BILE ACIDS TO REGULATE LIPID AND STEROID METABOLISM” (The Regents of the University of California, priority 2021, published 2025).

B1: 7α-HSDH homolog from MOL361: 7-alpha hydroxysteroid dehydrogenase homolog of MOL361, locus tag HLK68_RS02750, SEQ ID NO: 9, expressed in E. coli C41-pLys (protein, listed as Turicibacter sanguinis)
chain: MRKLENAIALVTSSTRGIGLACAKKLASEGAIVYMGVRRLEVTQEICDEVAKEGLKMKPVFFDAYNIDSYETMVEEVIREQGKIDILVNNFGTGRPEVDLDLVSGDEKAFFDILEANIGSVYRISKLVIPHMIKQGKGSIVNISSIGGTVPDISRIGYGVSKAGVNNITQQIAMQYARYNIRCNAVLPGLTATDAALDNMPEQFIKSFLSHVPLNRMGTPEDMANAVLFFASDDSSYVTGDIMEVSGGYHLGTPQYADFVGRKVVEEK
B2: BSH (group II): bile salt hydrolase group II from Turicibacter sanguinis H121, SEQ ID NO: 2 (protein, listed as Turicibacter sanguinis)
chain: MCTGLSLTTKDGKHFFGRNLDVPASYGQSVHIIPRNFNWLNVVNGETLASKYACIGMGIVVDNHPLLFDAVNEKGLAGGGLNFTHFAKFNENAIDGKINISASDFVYWALSNFADLNELRQALENLVLTNIPFEHELPVAGLHWMFTDLSGRSIVIENMADGMHIHENPVGVLTNDPTFDWHLTNLRQYVTLEKATPAPKQMGDLLLHPYGHGLGMCGIPGDASPAARFVRTVFFRDSIVEANDEISGVTAFLNVLTGVTVIKGSEVDPDGSMNYTVYKSAMCQESGTYYYTDYYNRRINAVKLSNANLDSKEITSFPYQGEQDILFQN
B3: BSH (group III): bile salt hydrolase group III from Turicibacter sanguinis 1E2, SEQ ID NO: 3 (protein, listed as Turicibacter sanguinis)
chain: MCTGLCLSTKDGKHLFGRNLDVPASYNQAVQIVPRNFKWLNVATQETITSKYACIAMGIVIDNHPLLFDGVNEKGLAGGGLNFTHFAKFSSTAVKDKISLSASDFVYWVLSTFSSLSELKETLPSVILTSIPFKPDLPVAGLHWIFTDKTGESIVIEYMEDGMHIHDNPVGVLTNDPTFDWQLTNLSQYVTLSCKTPQPEEMGNLLVKPFGHGLGMCGIPGDGSPAARFVRTVFFRDAVVGADDEISGVTAFFNVLSEVTVMKGSEIDPDGSMNFTVYKSAMCQESQTYYYTDYYNRRINAVKLTPDTMNADHITTFPYLGKQDICYQN
B4: BSH (group IV): bile salt hydrolase group IV from Turicibacter sanguinis MOL361, SEQ ID NO: 4 (protein, listed as Turicibacter sanguinis)
chain: MCTALSLTAKDGSHLFGRNMDIEYSFNQSILLTPRRFDYKNRATGEMNQTKYAIIGMGTIIDEHPCYAELFNEKGLAAAGLNFPNYAHWDEKAIEGKTNIPPYDLVLWVTSNFETVKEVKEALKDVVLVDVPVNEQTPIAPLHWMICDKTGESIVVEKTVNGLSVMDNKVGVLTNAPTFDWHLTNLTQYMGLTSTQPKDITLGEQELHPLGQGLGAFSLPGDYSSPSRFVKAAFLRNNIDYANVNYSGISEFFHILNGVAMVRGSVVTPQHLNDITLYTSCMDQERGIYYYNTYTNHTISSINMHNEDLDAKEIKSFKFNDEFAVNLQN
B5: BSH (group I): bile salt hydrolase group I from Turicibacter sanguinis MOL361, SEQ ID NO: 1 (protein, listed as Turicibacter sanguinis)
chain: MCTGLSLVTKDNKHLFGRNLDVPATYGQAVHIVPRNYDWFNIVSDETYTSKYACIGMGIVVDRLPLLFDAVNEKGLAGAGLNFTHFAKFNEKAVDGKTNISGSTFLYWALSNFSNLDELKEALKQLIITNIPVKEGLPVAGLHWMFTDLSGKSIVIEYMEDGMHVYDNPVGALTNDPTFPWHLTNLCQYVTLDTKTPAPKQFGEYVAKPFGHGLNMCGIPGDASPAARFVRTVYFRDTVVEADDEVSGVSAFFQVLTGVTVIKGSEIDPNGDMNYTVYKSCMCQESGTYYYTDYKNRRISAVCLSKADLDGKEIISFEYQGKQDILFQN

Assays:
CA, CDCA, and DCA = conditions: expressed in E. coli C41-pLys
Description: Escherichia coli C41-pLys (Lucigen) was used for characterizing putative bile modification genes, which were expressed off the pET21+plasmid. E. coli was grown acrobically shaking at 37° C. C in Luria Broth (LB, 1% NaCl, 1% tryptone, 0.5% yeast extract) supplemented with 100 μg mL^−1 ampicillin. Expression of genes was induced by addition of 100 μM IPTG.
In vitro characterization of bile transformations by engineered E. coli or B. thetaiotaomicron strains were performed by growing cells in respective media conditions described above supplemented with 0.5 mM (total combined concentration) of the noted bile species. Cells were grown to stationary phase (shaking at 37° C.), then frozen at −80° C. until further processing. Cells were then thawed, pelleted (5 minutes at 16,000×g), and the supernatant was removed to a new microcentrifuge tube. Three volumes of methanol was added, then the mixture was vigorously mixed for 30-60 seconds and incubated (room temperature, 15 minutes). Mixtures were centrifuged (5 minutes, 16,000×g), the supernatant removed to a clean microcentrifuge tube and dried in a vacuum concentrator. The dried residue was treated with methanol/water/formic acid (50/50/0.1, all by volume) then vigorously mixed and centrifuged as described above. […] The effluent from the column was passed through an electrospray ion source (capillary voltage 42V, capillary temperature 275° C., sheath gas flow 15 L min^−1, spray voltage 5 kV, and −15 kV conversion dynode with −1.2 k V multipliers) connected to a linear ion trap mass spectrometer (Thermo LTQ) scanning from m/z 95-1000 in the positive ion mode. Spectra were recorded and analyzed with instrument-manufacturer supplied software. Confirmation of proposed elemental compositions was achieved using the same chromatography and ion source configuration with the spectra recorded by scanning on an orbitrap mass spectrometer (Thermo LTQ XL).

[1] = tested on: tauro- (TCA, TCDCA) or glyco- (GCA, GCDCA) bile acids; experiment: Deconjugation by E. coli C41-pLys expressing putative Turicibacter bsh genes (LC-MS); type: cell-based
Description: Control is E. coli with same expression vector but expressing non-bile-modifying gene. d, same as c, but with GCA and GCDCA instead of tauro-bile acids. e, Quantification of percent remaining (compared to media controls) of conjugated bile acid (TCA, TCDCA, GCA, GCDCA) after 24 h growth with E. coli expressing the noted Turicibacter bsh gene. n=3 independent cultures, *p<0.05, **p<0.005, ***p<0.0005 using one sample t-test comparison with 100% remaining. BSH nomenclature indicates homolog group (e.g. III) and isolate of origin (e.g. MOL361).
Conjugation increases bile acid solubility and emulsification ability^45, while deconjugation reverses these effects, leading to decreased dietary lipid absorption. To identify Turicibacter bile salt hydrolase (bsh) genes responsible for the strain-specific differences in bile deconjugation, the study first searched our assembled genomes for annotations of “choloylglycine hydrolase,” the broad category that includes these genes. […] Isolates within the same phylogenetic and phenotypic subgroups largely shared similar sequences (FIG. 11a, b). To assay the function of the strain-specific putative bsh genes, the study cloned and individually expressed one representative sequence from each of the eight putative choloylglycine hydrolase groups in E. coli C41-pLys and measured the ability of these engineered bacteria to perform the deconjugations the study observed in the native Turicibacter. The study cultured the individual E. coli strains to stationary phase in the presence of two tauro-(TCA, TCDCA) or glyco-(GCA, GCDCA) bile acids, then measured their ability to deconjugate these bile acid pools. […] Collectively, these findings reveal that Turicibacter strains contain a range of bile salt hydrolases with deconjugation preferences for different bile acids.
For bile species quantification, an internal spike-in standard of 100 mM chenodeoxycholic acid-D4 (CDCA-D4, Sigma) was added to initial culture supernatants as a normalization reference. Area under the curve from reconstructed ion chromatograms was used to quantify the abundances of each species.

[2] = expressed in E. coli C41-pLys, grown with two tauro- (TCA, TCDCA) or glyco- (GCA, GCDCA) bile acids

Molecule | bile salt hydrolase (deconjugation) activity [1, 2] | other results
B1 |  | dehydrogenation of CA (CA, CDCA, and DCA; grown in CA): removed the mass equivalent of two hydrogens from CA; dehydrogenation of CDCA (CA, CDCA, and DCA; grown in CDCA): Background transformation by E. coli prevented clear evidence of CDCA dehydrogenation; dehydrogenation of DCA (CA, CDCA, and DCA; grown in DCA): did not act on DCA
B2 | activity on TCDCA and GCDCA | bile salt hydrolase (deconjugation) activity ([1]; expressed in E. coli, presented with the combined four bile acids): blunted
B3 | moderate activity on TCDCA | 
B4 | tauro-specific | 
B5 | deconjugates both glyco- and tauro-conjugates | 
